The record followed here is patent US6340783.

Experiment [1] deals with beta-amyloid protein (BAP) residues 1-28, synthetic peptide (Homo sapiens (Human)) (UniProt P05067). As to the kind of experiment: competition with 125I-HSPG for binding to the BAP (1-28) affinity column.
Experiment [2] has the same target. Put plainly: BAP (1-28) affinity column, no unlabeled competing ligand.
Experiment [3] deals with β/A4 (1-28) with three amino acid substitutions of the putative heparin binding domain (histidine, histidine and lysine changed to glycine) (UniProt P05067). As to the kind of experiment: affinity column chromatography of 125I-HSPG, mutated versus normal β/A4 (1-28) column.
The target of experiment [4] is beta-amyloid protein (BAP) residues 1-28, synthetic peptide (Homo sapiens (Human)) (UniProt P05067). As to the kind of experiment: BAP (1-28) affinity column after heparitinase/heparinase digestion.

A value given as a limit tells only on which side of the number the result lay.

Sequence of beta-amyloid protein (BAP) residues 1-28, synthetic peptide (Homo sapiens (Human)) (P05067 672-699 limits assumed): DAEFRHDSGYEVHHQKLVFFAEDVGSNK

In turn, “low density heparan sulfate proteoglycan isolated from the mouse Engelbreth-Holm-Swarm (EHS) sarcoma (perlecan), Q05793 22-3707” registered an IC50 in experiment [1] below 1 µM.

As for “high Mr heparan sulfate proteoglycan (HSPG) isolated from the culture media of bovine aortic endothelial cells, A0AAA9TDR0 23-4401”, the percent bound in experiment [2] was 21.6%.

In experiment [3], “high Mr heparan sulfate proteoglycan (HSPG) isolated from the culture media of bovine aortic endothelial cells (from UniProt A0AAA9TDR0 23-4401)” gave a percent decrease in binding against normal β/A4 (1-28) of 50 to 60%.

Take “heparitinase/heparinase-digested 125I-labeled HSPG, A0AAA9TDR0 23-4401”: the percent still able to bind in comparison to undigested controls in experiment [4] was found to be 61%.

By IC50 is commonly meant the concentration that gives 50% inhibition.
